Data taken from publication PMC4807272, “Structural Determinants of Oligomerization of the Aquaporin-4 Channel*” (The Journal of Biological Chemistry, 2016).
One block for each molecule: values may come before it.

Assays:
[1] = molecular target: wild-type human AQP1 (human) (UniProt P29972); test: native gel or EMSA; BN-PAGE (8% bis-tris gel, pH 7.0, on ice) of whole-cell lysates of transfected HEK293 cells in 1% Triton X-100 BN lysis buffer, then immunoblot (anti-AQP4 or anti-GFP) and densitometry; self-association: tetramer, dimer, monomer bands
[2] = molecular target: AQP4 I43A, C-terminal GFP fusion (UniProt P55087); test: BN-PAGE and Western blotting, densitometry; details: Triton X-100-solubilized protein from HEK293 cells; 3 experimental repeats; read off a plot
Target sequence in this assay (P55087 whole entry, stated change not applied, the tested form may be a part): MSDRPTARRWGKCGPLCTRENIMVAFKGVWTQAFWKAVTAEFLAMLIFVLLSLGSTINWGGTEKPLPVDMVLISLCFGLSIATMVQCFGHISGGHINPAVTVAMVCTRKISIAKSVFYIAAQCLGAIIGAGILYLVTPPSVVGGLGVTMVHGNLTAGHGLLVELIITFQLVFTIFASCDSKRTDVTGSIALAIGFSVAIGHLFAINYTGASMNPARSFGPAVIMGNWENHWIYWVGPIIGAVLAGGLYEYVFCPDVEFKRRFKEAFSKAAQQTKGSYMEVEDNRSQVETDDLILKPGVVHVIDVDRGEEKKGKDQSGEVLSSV

[3] = molecular target: AQP4 TM1 compound mutant (I43A/I47A/L50A/L51A/I57A), C-terminal GFP fusion (UniProt P55087); test: BN-PAGE and Western blotting, densitometry; details: Triton X-100-solubilized protein from HEK293 cells; 3 experimental repeats; read off a plot
Target sequence in this assay (P55087 whole entry I47A/L50A/L51A/I57A, stated change not applied, the tested form may be a part): as the sequence (P55087 whole entry, stated change not applied, the tested form may be a part) above, with I47A, L50A, L51A, I57A counted along it

[4] = molecular target: AQP4 I43A, C-terminal GFP fusion (UniProt P55087); test: native gel or EMSA; BN-PAGE (8% bis-tris gel, pH 7.0, on ice) of whole-cell lysates of transfected HEK293 cells in 1% Triton X-100 BN lysis buffer, then immunoblot (anti-AQP4 or anti-GFP) and densitometry; self-association: tetramer, dimer, monomer bands
[5] = molecular target: AQP4 TM1 compound mutant (I43A/I47A/L50A/L51A/I57A), C-terminal GFP fusion (UniProt P55087); test: as above
[6] = molecular target: the molecule itself; test: as above

B1: wild-type AQP10 (natural protein, human, UniProt Q96PS8 1-301, looked up)
chain: MVFTQAPAEIMGHLRIRSLLARQCLAEFLGVFVLMLLTQGAVAQAVTSGETKGNFFTMFLAGSLAVTIAIYVGGNVSGAHLNPAFSLAMCIVGRLPWVKLPIYILVQLLSAFCASGATYVLYHDALQNYTGGNLTVTGPKETASIFATYPAPYLSLNNGFLDQVLGTGMLIVGLLAILDRRNKGVPAGLEPVVVGMLILALGLSMGANCGIPLNPARDLGPRLFTYVAGWGPEVFSAGNGWWWVPVVAPLVGATVGTATYQLLVALHHPEGPEPAQDLVSAQHKASELETPASAQMLECKL
notes: aquaporin-10 (AQP10), human; The construct and its tag are not described; a GFP tag is surmised; source: HEK293, transfected, Triton X-100-extracted protein
stoichiometry N [6]: 4

B2: AQP3 P181S/Y182K/N183R (natural protein, human, UniProt Q92482 1-292, looked up)
chain: MGRQKELVSRCGEMLHIRYRLLRQALAECLGTLILVMFGCGSVAQVVLSRGTHGGFLTINLAFGFAVTLGILIAGQVSGAHLNPAVTFAMCFLAREPWIKLPIYTLAQTLGAFLGAGIVFGLYYDAIWHFADNQLFVSGPNGTAGIFATYPSGHLDMINGFFDQFIGTASLIVCVLAIVDSKRNPVPRGLEAFTVGLVVLVIGTSMGFNSGYAVNPARDFGPRLFTALAGWGSAVFTTGQHWWWVPIVSPLLGSIAGVFVYQLMIGCHLEQPPPSNEEENVKLAHVKHKEQI
notes: aquaporin-3 (AQP3), human; DPYNN changed to DSKRN; The construct and its tag are not described; a GFP tag is surmised; also called AQP3 DSKRN mutant; source: HEK293, transfected, extracted with Triton X-100
stoichiometry N [6]: 2

B3: AQP3 P181E/Y182K/N183R (natural protein, human, UniProt Q92482 1-292, looked up)
chain: MGRQKELVSRCGEMLHIRYRLLRQALAECLGTLILVMFGCGSVAQVVLSRGTHGGFLTINLAFGFAVTLGILIAGQVSGAHLNPAVTFAMCFLAREPWIKLPIYTLAQTLGAFLGAGIVFGLYYDAIWHFADNQLFVSGPNGTAGIFATYPSGHLDMINGFFDQFIGTASLIVCVLAIVDEKRNPVPRGLEAFTVGLVVLVIGTSMGFNSGYAVNPARDFGPRLFTALAGWGSAVFTTGQHWWWVPIVSPLLGSIAGVFVYQLMIGCHLEQPPPSNEEENVKLAHVKHKEQI
notes: aquaporin-3 (AQP3), human; DPYNN changed to DEKRN; The construct and its tag are not described; a GFP tag is surmised; also called AQP3 DEKRN mutant; source: HEK293, transfected, extracted with Triton X-100
stoichiometry N [6]: 2

B4: wild-type AQP9 (natural protein, human, UniProt O43315 1-295, looked up)
chain: MQPEGAEKGKSFKQRLVLKSSLAKETLSEFLGTFILIVLGCGCVAQAILSRGRFGGVITINVGFSMAVAMAIYVAGGVSGGHINPAVSLAMCLFGRMKWFKLPFYVGAQFLGAFVGAATVFGIYYDGLMSFAGGKLLIVGENATAHIFATYPAPYLSLANAFADQVVATMILLIIVFAIFDSRNLGAPRGLEPIAIGLLIIVIASSLGLNSGCAMNPARDLSPRLFTALAGWGFEVFRAGNNFWWIPVVGPLVGAVIGGLIYVLVIEIHHPEPDSVFKTEQSEDKPEKYELSVIM
notes: aquaporin-9 (AQP9), human; The construct and its tag are not described; a GFP tag is surmised; source: HEK293, transfected, Triton X-100-extracted protein
stoichiometry N [6]: 4

Other lines, results leading:

stoichiometry N [1]: 4
Molecule: wild-type human AQP1 (from UniProt P29972 1-269) (natural protein)

other: % tetrameric protein [2]: 100%
Molecule: wild-type human AQP4, C-terminal GFP fusion (from UniProt P55087) I43A

other: % tetrameric protein [3]: 100%
Molecule: wild-type human AQP4, C-terminal GFP fusion (from UniProt P55087) I43A; I47A; L50A; L51A; I57A

stoichiometry N [4]: 4
Molecule: AQP4 I43A, C-terminal GFP fusion (from UniProt P55087 1-323) (natural protein)

stoichiometry N [5]: 4
Molecule: AQP4 TM1 compound mutant (I43A/I47A/L50A/L51A/I57A), C-terminal GFP fusion (from UniProt P55087 1-323) (natural protein)
